Data set [1] addresses T1, eIF4E (untagged, co-expressed with p20);His6x-p20 6x mutant R55L;R56L;R57L;H60L;H61L;H62L (Saccharomyces cerevisiae;Saccharomyces cerevisiae) (UniProt P07260+P12962).
T1 sequence 1: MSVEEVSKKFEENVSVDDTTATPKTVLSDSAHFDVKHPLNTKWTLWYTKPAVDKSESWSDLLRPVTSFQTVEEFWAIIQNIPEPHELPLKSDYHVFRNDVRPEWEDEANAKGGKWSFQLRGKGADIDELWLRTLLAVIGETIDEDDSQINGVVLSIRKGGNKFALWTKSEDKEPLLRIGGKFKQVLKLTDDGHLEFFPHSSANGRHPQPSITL
T1 sequence 2: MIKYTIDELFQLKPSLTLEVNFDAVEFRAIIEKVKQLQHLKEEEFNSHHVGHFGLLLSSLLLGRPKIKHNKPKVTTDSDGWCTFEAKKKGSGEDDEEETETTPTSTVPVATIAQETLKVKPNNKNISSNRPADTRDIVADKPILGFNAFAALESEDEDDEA
Kind of data set: EMSA. The settings on record: 5' m7GpppG cap (Vaccinia Capping System); Buffer A: 10 mM sodium phosphate pH 7.5, 100 mM NaCl, 2.5 mM MgCl2, 1 mM DTT, 0.05% NP40; MST at 25 C (proteins for capped RNA MST RED-tris-NTA labeled in …).

Data set [2] addresses T2, eIF4E (untagged, co-expressed with p20);His6x-p20 WT (Saccharomyces cerevisiae;Saccharomyces cerevisiae) (UniProt P07260+P12962).
T2 sequence 1: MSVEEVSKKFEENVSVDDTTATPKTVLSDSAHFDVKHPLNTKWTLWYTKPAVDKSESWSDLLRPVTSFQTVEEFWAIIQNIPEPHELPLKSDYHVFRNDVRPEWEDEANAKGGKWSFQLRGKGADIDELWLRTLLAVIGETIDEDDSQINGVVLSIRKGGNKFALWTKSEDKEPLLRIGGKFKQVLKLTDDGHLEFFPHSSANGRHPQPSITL
T2 sequence 2: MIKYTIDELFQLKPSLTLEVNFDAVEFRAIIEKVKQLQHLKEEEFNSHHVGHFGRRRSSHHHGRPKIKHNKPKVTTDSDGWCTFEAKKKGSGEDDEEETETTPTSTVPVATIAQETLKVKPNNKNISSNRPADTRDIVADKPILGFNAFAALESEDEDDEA
Briefly: EMSA. The following applies: 5' m7GpppG cap (Vaccinia Capping System); Buffer A: 10 mM sodium phosphate pH 7.5, 100 mM NaCl, 2.5 mM MgCl2, 1 mM DTT, 0.05% NP40; MST at 25 C (proteins for capped RNA MST RED-tris-NTA labeled in …). (Mobility shift assays separate free from complexed probe on a gel.)

The target of data set [3] is T1, eIF4E (untagged, co-expressed with p20);His6x-p20 6x mutant R55L;R56L;R57L;H60L;H61L;H62L (Saccharomyces cerevisiae;Saccharomyces cerevisiae). Briefly: MST. The following applies: 5' m7GpppG cap (Vaccinia Capping System); Buffer A: 10 mM sodium phosphate pH 7.5, 100 mM NaCl, 2.5 mM MgCl2, 1 mM DTT, 0.05% NP40; MST at 25 C (proteins for capped RNA MST RED-tris-NTA labeled in …).

Data set [4] deals with T3, His6x-eIF4E;p20 N-terminal 18aa peptide (Saccharomyces cerevisiae;Saccharomyces cerevisiae) (UniProt P07260+P12962).
T3 sequence 1: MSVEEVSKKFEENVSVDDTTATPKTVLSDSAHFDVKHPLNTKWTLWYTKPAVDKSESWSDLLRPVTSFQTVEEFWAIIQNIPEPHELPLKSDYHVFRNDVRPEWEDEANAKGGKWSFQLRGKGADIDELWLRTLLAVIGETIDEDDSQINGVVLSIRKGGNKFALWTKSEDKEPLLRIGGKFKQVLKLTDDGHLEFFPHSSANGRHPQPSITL
T3 sequence 2: MIKYTIDELFQLKPSLTL
Briefly: MST. The settings on record: equimolar 18aa p20 peptide; 5' m7GpppG cap (Vaccinia Capping System); Buffer A: 10 mM sodium phosphate pH 7.5, 100 mM NaCl, 2.5 mM MgCl2, 1 mM DTT, 0.05% NP40; MST at 25 C (proteins for capped RNA MST RED-tris-NTA labeled in …).

Data set [5] concerns the target T2, eIF4E (untagged, co-expressed with p20);His6x-p20 WT (Saccharomyces cerevisiae;Saccharomyces cerevisiae). Briefly: MST. The settings on record: 5' m7GpppG cap (Vaccinia Capping System), Buffer A: 10 mM sodium phosphate pH 7.5, 100 mM NaCl, 2.5 mM MgCl2, 1 mM DTT, 0.05% NP40, MST at 25 C (proteins for capped RNA MST RED-tris-NTA labeled in …).
The target of data set [6] is T4, eIF4E (untagged, co-expressed with p20);His6x-p20 WT (Saccharomyces cerevisiae;Saccharomyces …, UniProt P07260;P12962 1-213;1-161, |).
T4 sequence 1: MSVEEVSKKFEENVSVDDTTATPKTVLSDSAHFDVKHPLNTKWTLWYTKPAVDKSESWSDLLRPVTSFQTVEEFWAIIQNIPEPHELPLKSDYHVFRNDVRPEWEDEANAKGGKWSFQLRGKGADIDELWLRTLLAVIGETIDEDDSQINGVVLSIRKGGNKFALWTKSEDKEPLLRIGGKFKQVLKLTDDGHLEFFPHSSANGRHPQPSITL
T4 sequence 2: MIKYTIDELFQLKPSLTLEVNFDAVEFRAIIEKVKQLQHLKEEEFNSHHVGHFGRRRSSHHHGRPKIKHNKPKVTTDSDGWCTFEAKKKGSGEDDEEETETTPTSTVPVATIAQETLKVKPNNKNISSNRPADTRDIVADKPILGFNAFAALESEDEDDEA
Briefly: EMSA; Buffer A: 10 mM sodium phosphate pH 7.5, 100 mM NaCl, 2.5 mM MgCl2, 1 mM DTT, 0.05% NP40; MST at 25 C (proteins for capped RNA MST RED-tris-NTA labeled in buffer B: 20 mM HEPES-KOH pH 7.5, 50 mM NaCl, 1 mM DTT); EMSA 1.5% agarose, 1x TBE, temperature not stated. The settings on record: protein: recombinant;recombinant; tags: ;N-terminal His6x; copies: 1;1; label: 3' FAM.

Data set [7] has as its target T5, eIF4E (untagged, co-expressed with p20);His6x-p20 6x mutant (Saccharomyces cerevisiae;Saccharomyces …, UniProt P07260;P12962 1-213;1-161, |R55L;R56L;R57L;H60L;H61L;H62L).
T5 sequence 1: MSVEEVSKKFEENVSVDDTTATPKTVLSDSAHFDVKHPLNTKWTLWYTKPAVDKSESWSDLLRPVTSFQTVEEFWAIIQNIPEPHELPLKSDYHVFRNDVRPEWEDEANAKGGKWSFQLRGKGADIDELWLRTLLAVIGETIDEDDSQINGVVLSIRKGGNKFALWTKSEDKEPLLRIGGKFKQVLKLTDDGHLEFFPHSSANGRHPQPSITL
T5 sequence 2: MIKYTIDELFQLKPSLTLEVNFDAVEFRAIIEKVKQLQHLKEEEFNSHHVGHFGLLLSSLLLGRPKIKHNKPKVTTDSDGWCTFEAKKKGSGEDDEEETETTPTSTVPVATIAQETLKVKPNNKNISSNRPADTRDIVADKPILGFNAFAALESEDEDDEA
Kind of data set: MST; Buffer A: 10 mM sodium phosphate pH 7.5, 100 mM NaCl, 2.5 mM MgCl2, 1 mM DTT, 0.05% NP40; MST at 25 C (proteins for capped RNA MST RED-tris-NTA labeled in buffer B: 20 mM HEPES-KOH pH 7.5, 50 mM NaCl, 1 mM DTT); EMSA 1.5% agarose, 1x TBE, temperature not stated. The settings on record: protein: recombinant;recombinant; tags: ;N-terminal His6x; copies: 1;1; label: 3' FAM.

Data set [8] addresses T4, eIF4E (untagged, co-expressed with …). The description is as above. The following applies: protein: recombinant;recombinant; tags: ;N-terminal His6x; copies: 1;1; label: 3' FAM.

Usually Kd stands for a measure of binding affinity in units of concentration. For the molecule “GGGAACAAAAGCUGGUAAUCAAGAAUUACAAGAAACAAAAAUUCAAGUAAAUAACAGAUAAUAC [capped SSA1 5'UTR RNA, 64 nt]”, the Kd is 285 nM in data set [1]; 64.9 nM in data set [2]; 424 nM in data set [3]; 211 nM in data set [4]; 44.9 nM in data set [5]; 46.9 nM in data set [5] (control of the 6x mutant experiment).

As for GUAUUACAAGAAACAAAAAUUCAAGUAAAUAACAGAUAAU (ssRNA) [uncapped SSA1 5'UTR RNA, 40 nt], the Kd in data set [6] was found to be 8800 nM; in data set [7], 35500 nM; in data set [8], 6240 nM.

(Values after article PMC5928113, “Properties of the ternary complex formed by yeast eIF4E, p20 and mRNA” (Scientific Reports, 2018).)
